In the DeepSol protein solubility set:

assay: soluble on expression in E. coli; label from the status in PepcDB or PDB records

Sequence | soluble on expression in E. coli
MGSDKIHHHHHHMGKVYVIGNFKGGVGKTKTVTMLAYESALQLGRKTLVIDLDPQGNATRVLAKTGDLAEITYTVTEAFQEGSLEPAITNISENLDLIPANTAFRNLTKILMTKFPSNEFDQINYLNTLLKPLKEKYDAIYIDVPPTISDFSDNAMLAADYCIIVLQTQELSLDGAQTYIAYMQYLADTYDNDLQVLGIIPCMLRPGGRVDNKVLEQAKELYGGNVLNTVVKYQERLKVYDVEGIKISHNYTGKADGWDVKAHKVFIDVLNELDQHQLVLEELEG | not soluble
SDVYNNTAFFEQYMKRRYRENSPNESIEKPVFFQLIGHVQGKQILDLGCGDAKFGAELLEKGCYSYTGIEGSELMYEKAKKQLENKNGSVHFLNLKDYTYPSSTFDLVTSRLALHYIEHLDTIFQNVFQTLKTNGTFTFSVQHPVITSSFESLQTSGKRTIWLVDDYFKLGKRVEPWIDQEVIKYHRTTEEYFTLLQQAGFTITSLKEATPNPTYFQDEEEYKRRLRIPLFLLFSCTK | soluble
MSLRVEAQNISKTFGEVQALKDLSFVIEKGKALGLLGRNGAGKTTAIRILLGILPSDTGKVLVDNKKLSFDENAFGYLPEERGLYLKYTVKSQLMHFASLYGMKKKEALNSIEYWLEKFEISEYLNKKVETLSKGNKQKIQLIVAVMHDPEVIILDEPFSGLDPVNVELFKTVIRELLAKGKTLIFSSHRMADVEEFCDDIIMLKKGETMLQGNLDKIKEDYGIKGLVVEGEEKVQDFLKELGFEALEFKKGSYRVNLKDLEKGKELLRKITNTDLDIRGFYFERPSLNDIFIERLGEGHHHHHH | soluble
MTMMTATQALSVNPATGQTLAAMPWANAQEIEHALSLAASGFKKWKMTSVAQRAQTLRDIGQALRAHAEEMAQCITREMGKPIKQARAEVTKSAALCDWYAEHGPAMLNPEPTLVENQQAVIEYRPLGVILAIMPWNFPLWQVLRGAVPILLAGNSYLLKHAPNVTGCAQMIARILAEAGTPAGVYGWVNANNEGVSQMINDPRIAAVTVTGSVRAGAAIGAQAGAALKKCVLELGGSDPFIVLNDADLELAVKAAVAGRYQNTGQVCAAAKRFIVEEGIAQAFTDRFVAAAAALKMGDPLVEENDLGPMARFDLRDELHQQVQASVAEGARLLLGGEKIAGEGNYYAATVLADVTPDMTAFRQELFGPVAAITVAKDAAHALALANDSEFGLSATIFTADDTLAAEMAARLECGGVFINGYSASDARVAFGGVKKSGFGRELSHFGLHEFCNVQTVWKNRV | soluble
MNGCKQSASKVFKLVGGFNKASSRCFSSEKLIPKDLKIVKNPTSEQIKQFQKLVGDFNDIKLLKETMKDNYQLYLLCHKDSTVLSGTQSITYKSLNRSIPDFQTFGLSYQPDNTYNLLPHLMHEMATDFKSVKMNSGGCVDSKYAAVWRKVLHTKVRGPTYYVSHYKPDEVFNPELEFDDVVVKKFSDVPVEHVVKYDNSIFPYERKEYILAKFKNGVGRVAYNKSGEVIGIGLVSTESSGNCEIGPIYCDNKNAAQAIFQSIIQDLPMKDLKDVLVRCSDKFEDSATWIRPFLRRSHEMTPFAHIKFNRVIPDGLNFSKVFVSSNPSNAPC | not soluble
MPLPPDITFDSLALIKMHSQNMKRILEVTLAKFTVNLSIVTVYRYLTARAYLKKNIEAEFEILKDIYNIVPLLDDIAIKAAQIEANLIKKEITLDMEDIITATTAIYTNSLLVTDDPKRYEPIRRFGLDTMPLDKFIKEVELMVEKELI | soluble
MGSDKIHHHHHHMTLLDEAVVLNDGSLMPKVGVVVGNKPADDAIKAGYRLIDCSLDQKTKLKAENPQLYVEVQVPEDVITRDDFKKIRQDIIDHHADLCLLKLSDNKEKNGQIWQELEQLKIQGWIKNIGVINISVDALNELLNHTQVRPCVAQISYEDQGLINLARENRIQVEIPVHGDINALAEIASHYGTSSVELVMRYFSQKGIVPLFEIEDVVENPRINFTINAEDLATIGQLFAQK | not soluble
RPDQVKLALDKPAYNDGDTAKVTVTPPAAGKGYLLIESSEGPLWWKEIDVPAEGKSYEIPLDKQWARHDLYVTALVIRPGERKANVTPKRAVGVLHLPLDRAQRKLALTVTAPEKMRPKQPLTLKVVAKNADGSVPEQVQVLVSAVDVGILNITRY | not soluble
MPQNQSDRLKPKGSGDGPLGTALGRGAGVASDLWRRIRTRALSAIGPEAEAQLYEVHKEWLGDLSGKKVLEIGGGSPLSPWLADTARTYHAVSADPAELEALKVRLGEGRTARLIEADPMSGAFRETGYDVIYLHSVLHRMADRGPFLDRLLKKLAIEGRVVTTDPADGGALTRLVRTIDRPFRAESLPDHPVTEELKAELAERFYLINCVAPFRLGKAALVLGALHPELGRRVSERLIAADLKDRAAFNRLNASLQVSFLLGAPD | not soluble
MGSDKIHHHHHHMIKILVDNTAYKKFFAQHGFSALIEINNKRILFDAGQNSITLRENLRLFNEKEGFDYIVLSHGHYDHCDGLKYVIENDLINGKVIAHKDAFLDKYAGNRYIGIDEEIKEYLLKKADLEIIEEPYKIDKDIIVSGYVPREYEYEMEEFQCIKDGKRVKDEVNDDMFLIAKGILITGCSHSGIINVVEYGKKLSEIKGVLGGFHLVGVSDNYLNRIVDYFKSQDFWIMPMHCTGFKALTKLSQLNNFVYGHVGKIIGI | not soluble
MRDVHSISAMNLRDVLSIPEVKQGQVIGKKIPATLGEDGMNVLGEPIKAKPGREFVLRPGKNSTVDEANGTLVAAVDGQMSVDKRTIHVYPVYEVPGDLTMKHGNISFIGNVIIRGHVPDGFVVKAGGDIRVFGTVEGATLEAGGSIFVGAGIVGQNRGCIRAEGGLHTTFINQAKVEVGGDIEVVQSILHSTCTAGGKIICTRGKGNIVGGALSAEDHIYAKEIGNSMHTKTSLYIGAKEKWVTKEKQLAKEYKTTEEELKKLSLLLQKFQELEKENGLTANGRVQRLRVKNTLVQVKEKHEQIKEQLEDVQENLTLNQAGSIVVEQTLYPNVSAHFGKYRRKIVSNHSNVKLSLVDQEIQLSSRLEHHHHHH | not soluble
MTGHRPACPPIPADVYTRLERRIGRCHLNQRLGIEHDFEARIFGQGRTFFHIENWNRLHTLLRRLLKLSLLYRPGQRAARRIEIRRNEFTLPHLPEAFEGYTLLHISDLHLDMAGDLPDALIRAIGQAGHYDACVLTGDFRARTFGPYRGAIDGLAQVRTHIDKPVFAILGNHDTIRMTPEIEDLGIGVLLNEAREIRQDGASIFLAGVDDPHYYRADNIEKAADPIPQGAVSILLSHSPELYRHAAYADFDIMLCGHTHGGQICLPGGIALTLNARCPRAFGRGYWRYHRMQGYTSAGSGVSILDIRLNCPPEITLHRLSRHRLSKGGCECGGGKGLEHHHHHH | soluble
MGSDKIHHHHHHMMDKEIENGSVNVDLLELEKFNQLAHRWWDPNSEFKPLHEINPLRLGYIDRHARLAGKDVLDVGCGGGILSESMAESGAQVTGIDLGDKALKVAKLHLLESGNKVNYRKSSVEALAAEQPHHYDVVTCMEMLEHVPDPVSTVRACAELAKPGGWVFFSTINRNPKSYLFAVIGAEYVLNLLPRGTHDYAKFIKPSELGRMAREAGLDVQEVIGMSYNPITKVYSLGQDTDVNYIMAFRA | not soluble
MGSDKIHHHHHHAKPVTSETMAAKTVGLQIYSLGKELYADVPGGLKKIKQMGYTNLELAGYKEGKIGGVDMMEFKKMVDDAGLKITSSHVNPPVREYTKANRSQISEYWKKTADDHAKLGVKYLIQPGQPSTRSTEETAFVCEIFNEAGKIVKAAGIPFGYHNHEMEFAKVNPGSTEAKLGRRVKGDCIYELFLKNTDPSLVFFEMDVYWAVMGQQDPIEWLKKYPNRIKVLHIKDRAILGESGMMNFENIFRQAYANGIKDYFVELEGMPDGRSQFEGVKGCVDYLLKAPFVK | not soluble
MGSDKIHHHHHHMPHPYHERLNFKTELPLRVISHGTVGPKMVLPHWHRAVELAYAYRGQPGTAHIGRSTYHMLADHLYVINSEVVHSYETFLDEDNQIVTLLLPASWLRNAVADEQLPIWGPLDLDLQSAVYQPLAKAVQTLVAGVITPSSARSAYLTSLGAEYQLVGQLLKHLTVNGQVTSDQLPLPAPLRQAVTELQENYAQPVSIANLAEQLNYSSVYFSRYFKDYMGISPKAYLGQIRLERATSLLMTSQDSIQNIALKTGFSTEKNFFVTFKQYYQMTPRTYRQRYSAQQSWS | not soluble
MGSDKIHHHHHHMHMQSPIQRRKSRQIHVGHVPVGGDAPIAVQSMTNTDTLDVDATVAQIRQLEAAGADIVRVSVPTMDAAEAFGQIKRQVSVPLVADIHFDYKIALRVAELGVDCLRINPGNIGREDRVRAVVDAARHHGIPIRIGVNAGSLEKDLQKKYGEPTPEALVESAMRHIEHLDRLDFQDFKVSVKASDVFMAVAAYRQLAQRIDQPLHLGITEAGGLRSGTVKSSIGLGLLLMEGIGDTIRVSLAADPVEEIKVGYDMLKSLRLRSKGINFIACPSCSRQNFDVIGTMNALEERLDDIMTPLDVSVIGCVVNGPGEAKESDIGLTGGDPANLVYIDGKPASKLRNDHLVDDLEALIRDKVREKEARERDTIAREA | not soluble
MARFSGKVALITGSSNGIGRAAAILFAQQGAKVTITGRNAERLKETRHEIKKSGIPAENILAIVADVITDEGQMRLINDTVRKFGHLDILVNNAGGALMDAQGRVGMDQDISVFDNTMQINMRSVVTLVQKAKEHLIKSKGEIINVSAMAAGHHGDPIATFYGMSKAALDQFTRSSAISLIQHGVRVNSVSPGFTKTGFGEAMGFPPIAMKKVISFYESHKECAPSGAIAQPGDIAQVILFLADRTMSSYIIGQSIIADGGSSLVMGMHAHDMLDILKA | not soluble
MSDSQTLVVKLGTSVLTGGSRRLNRAHIVELVRQCAQLHAAGHRIVIVTSGAIAAGREHLGYPELPATIASKQLLAAVGQSRLIQLWEQLFSIYGIHVGQMLLTRADMEDRERFLNARDTLRALLDNNIVPVINENDAVATAEIKVGDNDNLSALAAILAGADKLLLLTDQKGLYTADPRRNPQAELIKDVYGIDDALRAIAGDSVSGLGTGGMSTKLQAADVACRAGIDTIIAAGSKPGVIGDVMEGISVGTLFHAQATPLENRKRWIFGAPPAGEITVDEGATAAILERGSSLLPKGIKSVTGNFSRGEVIRICNLEGRDIAHGVSRYNSDALRRIAGHHSQEIDAILGYEYGPVAVHRDDMITR | not soluble
MGSDKIHHHHHHMTHQANDAVAPASGMIELSHSFDANRFLAAVDRDERATLIANLQLVHLKSGQVLCEPGEMLTAVYLPVTTAISLQYVSTGGMTLEVAQIGSESVVCDDVIGGSGRMPCRAVACRDGFVYRLDRRIFAAAFDASPVIRHLVFVCVRLLMAQVAQITFCSRHHVLKHQLCRWFLLAYDRSRSIEIQVTHSMLAQMLGVRRETVTDAAGEIQRLGLIRQYRSSIVLADLAGLEKLSCGCRAIVRDEMKRILSADSGVSAAARA | not soluble
MTMSTILFDDIRPYCDQEAPAVIERLLSSAEYRYVFGKMMPDVKPQEFEQMMLRCKSTGEFKHIFGYTAVKAVSEKTTFSLSLSGRSRIPDNGAYIFISNHRDIVLDSAFLNLLLAEIDYNMPQIAIGDNLLVKPWIEDFVRLNGSFIVRRGINMRELIAQSQRLSAYIRHTITQTKDSIWIAQREGRAKDADDRTQSSVLKMLAMSGEDGGIKSLLNLNIVPLSLSYEYDPCDYLKAREMLSKQRDPLYKKPVGEDLLNMQTGIFGYKGRVHFAIGTPLRELAESIPADAPHARQFTEAGKLIDAEIHRRYRLYPGNYVAWDLLDGCDHAGSHYSKEEKETFVNYLSAQIAKVEMQDKDEEELKRLILIMYANPARAYYAAQDPTNV | not soluble
